Source: publication PMC8814693 (Computational and Structural Biotechnology Journal, 2022)

T1: Bak (residues 23-186) (UniProt Q16611 23-186)
T1 construct: Bak, residues 23-186; Cloned in pET-28a(+) between NdeI and XhoI; buffer-exchanged to HBS-EP
T1 sequence (looked up): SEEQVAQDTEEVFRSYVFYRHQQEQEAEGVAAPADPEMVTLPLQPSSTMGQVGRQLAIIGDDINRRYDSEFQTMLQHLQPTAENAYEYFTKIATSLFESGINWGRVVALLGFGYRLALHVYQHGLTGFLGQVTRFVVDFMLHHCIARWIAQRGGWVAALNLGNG


Legend:
Conditions in all cases: both partners purified
Bcl-2 (residues 1-207) [1] = target: T2, Bcl-2 (residues 1-207) (UniProt P10415 1-207); assay: SPR; Bid BH3 peptide amine-coupled to a CM5 chip (10 mM sodium acetate pH 4.0); proteins injected in HBS-EP (10 mM HEPES pH 7.5, 150 mM NaCl, 0.05 mM EDTA, 0.005% Tween 20) at 30 uL/min for 90 s; Biacore T200; affinity experiments, responses plotted against concentration
T2 construct: Bcl-2, residues 1-207; Cloned in pET-28a(+) between NdeI and XhoI; buffer-exchanged to HBS-EP
T2 sequence (P10415 1-207): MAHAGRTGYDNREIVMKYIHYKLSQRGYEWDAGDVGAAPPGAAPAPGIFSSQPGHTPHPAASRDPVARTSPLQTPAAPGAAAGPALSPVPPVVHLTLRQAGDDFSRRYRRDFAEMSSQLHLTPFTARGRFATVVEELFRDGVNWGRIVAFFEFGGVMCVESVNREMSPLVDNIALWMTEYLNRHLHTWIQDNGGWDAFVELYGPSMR

Bcl-XL (residues 1-209) [2] = target: T3, Bcl-XL (residues 1-209) (UniProt Q07817-1 1-209); assay: as above
T3 construct: Bcl-XL, residues 1-209; Cloned in pET-28a(+) between NdeI and XhoI; buffer-exchanged to HBS-EP
T3 sequence (Q07817 1-209): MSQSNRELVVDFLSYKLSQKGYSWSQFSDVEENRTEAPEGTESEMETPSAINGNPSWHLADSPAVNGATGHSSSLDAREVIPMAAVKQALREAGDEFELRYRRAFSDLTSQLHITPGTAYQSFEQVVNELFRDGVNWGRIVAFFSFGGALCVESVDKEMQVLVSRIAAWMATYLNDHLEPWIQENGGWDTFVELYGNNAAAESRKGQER

Bak (residues 23-186) = target: T1, Bak (residues 23-186); assay: as above
Bcl-2 (residues 1-207) [3] = target: T2, Bcl-2 (residues 1-207); assay: SPR; Bfk BH3 peptide amine-coupled to a CM5 chip (10 mM sodium acetate pH 5.0); Bcl-2, Bcl-XL (3.13-200 nM) and Bak (1.25-40.0 uM) injected in HBS-EP at 30 uL/min for 90 s; Biacore T200; KD by steady-state affinity analysis
Bcl-XL (residues 1-209) [4] = target: T3, Bcl-XL (residues 1-209); assay: as above

Kd (Bcl-2 (residues 1-207) [1]) | Kd (Bcl-XL (residues 1-209) [2]) | Kd (Bak (residues 23-186)) | Kd (Bcl-2 (residues 1-207) [3]) | Kd (Bcl-XL (residues 1-209) [4]) | Binder
44 nM | 87 nM | 37000 nM |  |  | EDIIRNIARHLAQVGDSMDRS (BH3 peptide of Bid; also called Bid BH3 peptide; representative BH3 peptide; source: synthetic peptide) [synthetic BH3 peptide derived from Bid (residues 79-100)]
 |  |  | 17.4 nM | 36.9 nM | SFDVAIIAGRLRMLGDQFNGE (BH3 peptide of human Bfk (BCL2L15), residues 47-67; also called Bfk BH3 peptide; Bfk BH3; source: synthetic peptide) [synthetic BH3 peptide derived from Bfk (residues 47-67)]
